# Data as given in the DeepSol protein solubility set.
# Assay: soluble on expression in E. coli; label from the status in PepcDB or PDB records
row,Sequence,soluble on expression in E. coli
1,MSLGKEAEMNYPTDEKNFFQILEEQLSYFKINKKIKEICIFIINNLDKKGYLELSKIEIKDILEVSNKELEEAFDIIHNLEPYGIGAYSLEECLKIQLKAKKIIEEKLSLFIDNYLYLLADKKYDLIKEKLNINDNILFSYIDIIKSLNPIPSRGYSVGKVRKIIPDVLVEIKKNEIFYEINRASIPQINVKDKIEDKYYKKINEIISCIEKRFETIDKIMKIIIREQKIFFTSQGKKINTLKISDIADKLNLSPSTVSRAVKEKYIKTNFGIISLRKLFNLDSAVFLYQQKILEYIENENKENPISDQDIVNLLEKDGIKIARRTVTKYREKLGYKSSHKRKKYEGHHHHHH,not soluble
2,MAHHHHHHSLNDELKNKSGKVKVMYVRSDDDSDKRTHNPRTGKGGGRPAKSRTDGGRRPARDERNNQSRDRKHETSPWRTVSRAPGDETPEKVDHGGISGKSFIDPEVLRRQRAEETRVYGENACQALFQSRPDAIVRAWFIQSVTPRFKEALRWMAANRKAYHVVDEAELAKASGTEHHGGVCFLIKKRNGTTVKQWVKQAADQDCVLALEDVANPHNLGGMMRSCAHFGVKGVVVQDAALLESGAAIRTAEGGAEHVQPITGESIVDVLDDFRQAGYTVVTTSSDRGQALFSTTLPEKMVLVLGREYDYLPEAAREPDDLCVKINGTGNVESLNVSVATGVLLAEWWRQNKAEG,soluble
3,MAAQATAETPAGELPVIDAVTTHAPEVPPAIDRDYPAKVRVKMETVEKTMKMDDGVEYRYWTFDGDVPGRMIRVREGDTVEVEFSNNPSSTVPHNVDFHAATGQGGGAAATFTAPGRTSTFSFKALQPGLYIYHCAVAPVGMHIANGMYGLILVEPKEGLPKVDKEFYIVQGDFYTKGKKGAQGLQPFDMDKAVAEQPEYVVFNGHVGALTGDNALKAKAGETVRMYVGNGGPNLVSSFHVIGEIFDKVYVEGGKLINENVQSTIVPAGGSAIVEFKVDIPGNYTLVDHSIFRAFNKGALGQLKVEGAENPEIMTQKLSDTAYAVPR,soluble
4,MSLINGSDPRYNFNVAPYPYCRLCKGHKHMCGLRVCPILERFQEVFPRLDLHGDISTSTPPSIFIGEYNYPSVYGGIMSVVDPERPYARRDMFDLGMPEIIERNANLFRNVKTVSVHNLSEKTVEQIQEAAMALNELRVESRIVGKEKHFDFFDSPVGPMYKSENIKVYGNAKTPRAAQDVIYDIDLNSTEALKILYMNSIDINYITGLLSGGLLGIEKKRKLVPTRWSITAVDDTISRYLKSDALNYESIDKPMVFSYSRFGNHFNIILLPRGTAFEMQEYWEIGSLWGSDGRVSIDFEGHHHHHH,soluble
5,TSTDAAGGDSYRVGINQLVQHPALDAATTGFKEAFEEAGVDVTFDEQNANGEQGTALTISQQFASDNLDLVLAVATPAAQATAQNITDIPVLFTAVTDAVSAELVDSNEAPGGNVTGTSDIAPIEQQLELLQQLVPDAKSIGIVYASGEVNSQVQVDEVTKAAEPLGLSVNTQTVTTVNEIQQAVEALGDVDVIYVPTDNMVVSGISSLVQVAEQKQIPVIGAESGTVEGGALATLGIDYTELGRQTGEMALRILQDGEDPATMPVETATEFTYVINEDAAERQGVEIPQEILDKAERV,not soluble
6,MSEIKQLPTRDEVPTPLTWDLTKIFKDDAAFDVAYNQLIEELNQAESFKGTLGDGAEAFLAALEYVLDVYRKVETLYVYSHLKNDQDTTNTAYQALYARASSLYAQVSEAVSWFDPEVLTLSDEQIWGYFEEQPKLAVYRHYIQNILDERPHVLSMEQEALLAGASEIFGASSNTFSILNNADLEFPTVQNAEGETIQLSHGVYGQLMESVDPSVREAAFKGLYKVYKQFRNTLASTLGAHVKTHNYKAKIRNYDSARAASLASNHIPESVHETLVAVVNKHLPLLHRYVKLRKKLLNVEELHMYDLYAPLLGEAPIRYSYEEAKEKAIEALKPLGEDYLSIVKEAFSSRWIDVIENQGKRSGAYSSGAYDTAPYILMNWHDSLDQLFTLVHEMGHSVHSYYTRNNQPYVYGDYSIFLAEIASTTNENILTEYLLQTETDPKVRAYVLNHYLDGFKGTIFRQTQFAEFEHFIHTEDAKGTPLTSEYLSEYYGELNAKYYGPEVVRDEEISYEWARIPHFYYNYYVYQYATGFSAASALSKHILAGEEGALENYLNYLKAGSSDFPIEVMKKAGVDMTQAAYIEDAMKVFEERLTELEALVEKL,not soluble
7,AARRKIAKDLGKQVTQAMQTLSMQGGRFEAALTGGAPSAHGSEQVEFLVAGHAGSTPRPLAKVASGGELSRISLALSVIASRAARVPTLIFDEVDSGVGGAVAEAVGKLLRELGQRHQVLCVTHLPQVAACAHAQYRVSKVESGGSTRSRIAELDAEARVEEVARMLGGIKITATTRDHAREMLGGHTAPAA,not soluble
8,MAHHHHHHMAATKSAVSAAKRKAAKKVSRKSPEYTTLRKSCAPGAIAIILAGRFRGRRAVILKQLPHNGPLVVSGPMKYNGVPIRRIDSRYVIATSTTVDISSVDTAPITAEVFQRPKAEKPTKSEGDFMGDKQKAKAEKAAKKTSKAGKKTLVSDARAQLQKKIDAALIAAIKKDAQGKEKAGYLRSVFTVKPGDAPHRWNW,not soluble
9,GKNYVRSELKRLNHLCRDFRRDEVHAMDKLLFDQLCQIQLLLGTQAEVHIVSGYRSPATNKQLRSKSKGVAKKSYHMSGQAIDFRLDGVSLKKIREAAISLQAGGVGYYPKSQFIHIDTGPVRQWVGA,not soluble
10,MELVYMDGKKEPYTTSEIIAECAEVQHHTITRLIRENKADFEELGILGFKIHKLDTRGQPKKSYILNEQQATFLITYLKNTETVRQFKLNLVKAFFEMREELSEIRLQRALEKPKRKTLHDSIETWPNAPKHAHSTMNNLLLKAVTDMNAKQLREERGGYNGIDSLTSEELEQYQAFEDMAIAMIELKMSYQEIKTMMFRSKKIS,not soluble
11,MAHHHHHHMLVRSITKCVVPLIKATSYTSSYIVEHPPTPVRLTSMLPLHNKSMPTPLLDPERLQEISCGTGQPAQRGRRKPLVWKRRKPWFDHQWSLDLQRIKKGPETPHFPDGTPFTQIRSFQSFAGRSWKINAGRRRKIRLSLKRGRRKLL,not soluble
12,MPLFAGFSPRSGQGDLAEFVDIINGARRDLLFVTAFALPDSILDALLGQPHDDVLRYGLQNTASRITGFHADRTAEFAATALLNNGLEGWLKEGLKGQKGNLLVHTKAIVTDFTSEAPVIISGSHNLSVGASQSNDENFLIIRGDIDLEHHHHHH,soluble
13,MGSDKIHHHHHHMKYTIEEIRQMQEGQTFDCKSILIEPKHLATIIVAMANADGGMIAVGISDKTRRIEGVNQDKEHLNDILRTPLDFCVPSVSVTTDYVPCTDAEGRDNRVLLMHIPASPRLHANQADEVFWRVGDKSRKLTFDERLQLMYDKGERYYEDSTAYDATLDDIDMDAVKAYMKRIGYGKSAMEYLQENKGFVTYKGDVPQVSAACILLFGKHPQTFFPRARVRFIKYFGTEEKVGREMNVIKDVTFDGRILEQIQKTVEYLETQVKEHSYLGEDGIFKTDREYPKFVIQEMVVNSVCHRDYSIKGTEIQIKMFDDRLVFETPGKLPGIVRTDNIRHTHFSRNPKIAEFLKAYDYVKEFGEGVDRMCRELSALGVKEPQYNLVAFIMKATVCAKVLEERQGTNHFDQKRPESDQKSDQMRIILELIKSNPNISRTELSEKTGLHDSSVKRRLKTLVDEGLIQRVGPDKGGQWKVIGSL,not soluble
14,MGSSHHHHHHSSGLVPRGSHMMIVIMDNGGQYVHRIWRTLRYLGVETKIIPNTTPLEEIKAMNPKGIIFSGGPSLENTGNCEKVLEHYDEFNVPILGICLGHQLIAKFFGGKVGRGEKAEYSLVEIEIIDEDEIFKGLPKRLKVWESHMDEVKELPPKFKILARSETCPIEAMKHEELPIYGVQFHPEVAHTEKGEEILRNFAKLCGEL,soluble
15,MIRLSEQSPLGTGRHRKCYAHPEDAQRCIKIVYHRGDGGDKEIRRELKYYAHLGRRLKDWSGIPRYHGTVETDCGTGYVYDVIADFDGKPSITLTEFAEQCRYEEDIAQLRQLLKQLKRYLQDNRIVTMSLKPQNILCHRISESEVIPVVCDNIGESTLIPLATWSKWCCLRKQERLWKRFIAQPALAIALQKDLQPRESKTLALTSREALEHHHHHH,not soluble
16,MGSDKIHHHHHHMKEKVVLAYSGGLDTSVILKWLCEKGFDVIAYVANVGQKDDFVAIKEKALKTGASKVYVEDLRREFVTDYIFTALLGNAMYEGRYLLGTAIARPLIAKRQVEIAEKEGAQYVAHGATGKGNDQVRFELTYAALNPNLKVISPWKDPEFLAKFKGRTDLINYAMEKGIPIKVSKKRPYSEDENLMHISHEAGKLEDPAHIPDEDVFTWTVSPKDAPDEETLLEIHFENGIPVKVVNLKDGTEKTDPLELFEYLNEVGAKNGVGRLDMVENRFIGIKSRGVYETPGATILWIAHRDLEGITMDKEVMHLRDMLAPKFAELIYNGFWFSPEMEFLLAAFRKAQENVTGKVTVSIYKGNVMPVARYSPYSLYNPELSSMDVEGGFDATDSKGFINIHALRLKVHQLVKKGYQR,soluble
17,MGTEFNGLFDEWAHTYDSFVQGEDIQYKEVFAHYEDILEDVVNKSFGNVLEFGVGTGNLTNKLLLAGRTVYGIEPSREMRMIAKEKLPKEFSITEGDFLSFEVPNSIDTIVSTYAFHHLTDDEKNVAIAKYSQLLNKGGKIVFADTIFADQDAYDKTVETSKRKRFPPVSKRFANGILYTYSSYADYFLEHHHHHH,soluble
18,AHHHHHHASAKWVCKICGYIYDEDAGDPDNGISPGTKFEELPDDWVCPICGAPKSEFEKLEDGSACYSSSPEVIVLREYLLIKIHEDGVIKIPQELAYEVGLVKGAYFLVEIDTDIKELHVERVALPGKKLVEIELVVEDKPGVLAKIAGILGKNGINILFNEAEELESLGLSAIVAVVDVSGAKISLKDLESTLKEINEVKEVKIVEIE,soluble
19,MFFIHKLFPAKLIRRYKRFLADVKREDQHIFTVSVPNTGSMLGLTTPNSNIWLSYHNNPKRRYAYQLEIVEANNTLVGINTTLPNKLALEAIQNNLLPELNGYKTILKEQRYGIQSRIDFLLRDDILPDCYLEIKNVHFIRQKGLAEFPDTETKRGTRHLEELIKIVQQGKRAVMLYIIQREDCSAFTICRDLDPTYGRKFDLALESGVEFYAIKCQVSVEGIFPIQQVKIENRK,not soluble
20,MKLTPNFYRDRVCLNVLAGSKDNAREIYAAAEGHVLVGVLSKNYPDVASAVADMREYAALIDNALSVGLGAGDPNQSAMVSEISRQVQPQHVNQVFTGVGTSRALLGQNETVVNGLVSPTGTPGLVKISTGPLSSRAPDGIVPIETAIALLKDMGGSSVKYFPMGGLTCRDEYKAVAEPAPAMISGWNRRAVSIWKTSPRFCTSPLMQV,not soluble
21,MAHHHHHHMAWTCSALSNASMIQNLERAALLSTPAIIASLQRVDRGWFVPDGMRSSAYRDEPLSLGHGATISAPHMHAIMLELLSPFLLSTPGSLPKAVLDIGSGSGYLTAILADICGDGSRVVGVEHVVELQERSLKVVLQHFPSWVNEGRITFINGDGRDISKLFHPHTAMFDVIHVGAAAASVPKDYLEAIKPGGCLVIPVGKENEVQHLHLYTKDEKGTITKKTHGGVSFVPLTSLRHQKNRS,soluble
22,KYQLMANDPVQYKALGKMLGSMGRSDPNEIAPLYFSELMAALKKCATRRTHTNVLQHLCGYLKQTISAEDKQEIQEVIGQYHQGIVPLIVPLTLLKHHFRQHPDPYVALQVYMQPHP,not soluble
23,MSTRPTTDKVKEAIFNMIGPYFSGGNGLDLFAGSGGLGIEALSRGIERVIFVDHDRKAVQTVRKNVAACGLEKRAEIYCNDAERALKAVAKRGLRFAVIFLDPPYKEKQWPTLLSSIVERQLLEPHGVVVAEHSAEAELPEEVGGLTRWKRETYGITGVTIYRWEGDGSDGEHCGLPREL,not soluble
24,MYMSSLQSTRERVLGTPRRRYKVLVAKMGLDGHDRGAKVVARALRDAGFEVVYTGLRQTPEQVAMAAVQEDVDVIGVSILNGAHLHLMKRLMAKLRELGADDIPVVLGGTIPIPDLEPLRSLGIREIFLPGTSLGEIIEKVRKLAEEKRMREEAEASEQVGQA,soluble
